Results taken from paper PMC7393112.

Substrate: C[C@@H](O)C(=O)O
Test: purified protein
Conditions: DCIP as co-substrate, D-lactate 5-300 µM, pH of the kinetic assay not given (optimum pH 8.75)

B1: OsD-LDH2 (Oryza sativa Japonica Group) (protein)
chain: MARRAAAGLLRRHLGPLAAGETLQARGMYPKQYGAANHAFSRFYSIQGQQRSLYGFRTNVETDDTQQSARMNFEVQKRSFSSAAAHVQRNPAYSVLNSDDVSYFKSILGDSGVVQDEDRVSVANMDWMGKYKGSSQLLLLPKSTAEVSKILSYCNSRRLAVVPQGGNTGLVGGSVPVYDEVIISLGGMDKIITFDNVNGILTCEAGCVLENLSSYVENKGFIMPLDLGAKGSCHIGGNISTNAGGLRFIRYGSLHGSVLGLEVVLADGTVLDMLTTLRKDNTGYDLKHLFIGSEGSLGIVTKIAILTPAKLPSTNVAFLSCNDYISCQKLLLAARRSLGEILSAFEFMDRHCINLAMKYLEGVHNPLPVSPFNFYVLIETTGSDESYDKAKLEAFLLRSMEDGLVADGVIAQDISQASNFWRIREGISEASVKVGAVYKYDLSIPVEKLYDIVEEMRSRVGDMGQVLGYGHLGDGNLHLNILSTKYSDKMLAQIEPFVYEWTSKQRGSISAEHGLGLMKAEKIHYSKSSEAVQLMASIKKLLDPNSILNPYKVLPQSVL
Protein B1 has a Km of 8.045 ± 1.7 µM, a kcat of 3.27 s⁻¹ and a kcat/Km of 407000 M⁻¹ s⁻¹.
